Experimental data published in patent US20130231277A1 (NEW YORK UNIVERSITY, published 2013).

Columns and labels:
[1] = target: T1, 1:1 binary complex of FGFR1c ligand-binding domain and βKlotho ectodomain (human; murine, UniProt P11362 142-365; Q99N32 53-995); assay: SPR competition; FGF21 immobilized, FGFR1c-βKlotho complex mixed with the chimera (FIGS. 15E, 15F)
T1 construct: also called FGFR1c-βKlotho complex; FGFR1c-βKlotho; not shown: C-terminal FLAG tag
T1 sequence 1: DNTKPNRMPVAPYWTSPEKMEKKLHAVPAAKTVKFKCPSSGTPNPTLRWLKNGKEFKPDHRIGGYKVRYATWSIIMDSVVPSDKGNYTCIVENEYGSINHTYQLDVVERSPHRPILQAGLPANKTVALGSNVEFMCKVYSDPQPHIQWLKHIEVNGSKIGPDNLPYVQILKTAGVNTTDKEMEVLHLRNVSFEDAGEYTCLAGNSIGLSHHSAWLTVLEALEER
T1 sequence 2: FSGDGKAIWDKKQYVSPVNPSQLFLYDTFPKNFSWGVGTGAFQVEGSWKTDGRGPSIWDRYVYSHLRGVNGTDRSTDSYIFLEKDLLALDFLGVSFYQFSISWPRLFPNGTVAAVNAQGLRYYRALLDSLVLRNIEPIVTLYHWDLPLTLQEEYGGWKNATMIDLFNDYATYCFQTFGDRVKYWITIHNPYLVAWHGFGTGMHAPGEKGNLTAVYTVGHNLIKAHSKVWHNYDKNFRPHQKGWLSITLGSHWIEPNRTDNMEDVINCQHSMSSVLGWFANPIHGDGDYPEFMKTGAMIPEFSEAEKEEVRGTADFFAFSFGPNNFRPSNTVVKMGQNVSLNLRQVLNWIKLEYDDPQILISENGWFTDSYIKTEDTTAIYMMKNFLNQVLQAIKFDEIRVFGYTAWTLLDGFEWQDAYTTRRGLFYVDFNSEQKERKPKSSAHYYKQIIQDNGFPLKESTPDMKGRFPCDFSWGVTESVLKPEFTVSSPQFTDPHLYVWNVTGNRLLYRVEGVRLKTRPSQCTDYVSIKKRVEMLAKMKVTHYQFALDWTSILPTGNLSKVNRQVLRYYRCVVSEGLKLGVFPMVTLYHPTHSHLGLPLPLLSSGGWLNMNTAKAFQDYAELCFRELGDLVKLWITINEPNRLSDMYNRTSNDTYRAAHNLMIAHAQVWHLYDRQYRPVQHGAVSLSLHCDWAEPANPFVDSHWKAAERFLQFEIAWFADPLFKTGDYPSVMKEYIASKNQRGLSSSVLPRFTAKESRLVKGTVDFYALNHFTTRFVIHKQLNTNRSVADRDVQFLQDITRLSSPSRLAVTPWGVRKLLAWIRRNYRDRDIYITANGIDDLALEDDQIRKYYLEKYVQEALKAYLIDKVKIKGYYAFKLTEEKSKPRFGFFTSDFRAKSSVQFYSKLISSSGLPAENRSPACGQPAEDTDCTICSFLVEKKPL
Text: In the experiments shown in FIGS. 15A-15C, increasing concentrations of either an FGF21/FGF19 chimera or wild-type FGF21 were mixed with a fixed concentration of FGFR1c-βKlotho complex, and the mixtures were passed over a FGF21 chip. […] The data shown in FIGS. 15A-15C are representative of two to three independent experiments. Included in FIGS. 15E-15F are SPR sensorgrams obtained from injecting mixtures of the FGF21²⁹⁻¹⁹⁰/FGF19¹⁹⁷⁻²¹⁶ chimera with the FGFR1c-βKlotho complex over a FGF21 chip.
(§1) SPR experiments were performed on a Biacore 2000 instrument (Biacore AB), and all the protein-protein and protein-peptide interactions were studied at 25° C. in HBS-EP buffer (10 mM HEPES-NaOH, pH 7.4, 150 mM NaCl, 3 mM EDTA, 0.005% (v/v) polysorbate 20). Proteins were immobilized by amine coupling on flow channels of research grade CM5 chips (Biacore AB). Proteins were injected over a CM5 chip at a flow rate of 50 μl min⁻¹, and at the end of each protein injection (180 s), HBS-EP buffer (50 μl min⁻¹) was flowed over the chip to monitor dissociation for 180 s.

[2] = target: T2, ectodomain of murine βKlotho (F53 to L995 of SEQ ID NO: 218) with a C-terminal FLAG tag (murine, UniProt Q99N32 53-995); assay: SPR competition; FGF21 immobilized, fixed βKlotho ectodomain mixed with increasing chimera (FIGS. 7B, 7C)
T2 construct: Expressed in HEK293 cells and purified from culture media; also called βKlotho ectodomain; not shown: C-terminal FLAG tag
T2 sequence: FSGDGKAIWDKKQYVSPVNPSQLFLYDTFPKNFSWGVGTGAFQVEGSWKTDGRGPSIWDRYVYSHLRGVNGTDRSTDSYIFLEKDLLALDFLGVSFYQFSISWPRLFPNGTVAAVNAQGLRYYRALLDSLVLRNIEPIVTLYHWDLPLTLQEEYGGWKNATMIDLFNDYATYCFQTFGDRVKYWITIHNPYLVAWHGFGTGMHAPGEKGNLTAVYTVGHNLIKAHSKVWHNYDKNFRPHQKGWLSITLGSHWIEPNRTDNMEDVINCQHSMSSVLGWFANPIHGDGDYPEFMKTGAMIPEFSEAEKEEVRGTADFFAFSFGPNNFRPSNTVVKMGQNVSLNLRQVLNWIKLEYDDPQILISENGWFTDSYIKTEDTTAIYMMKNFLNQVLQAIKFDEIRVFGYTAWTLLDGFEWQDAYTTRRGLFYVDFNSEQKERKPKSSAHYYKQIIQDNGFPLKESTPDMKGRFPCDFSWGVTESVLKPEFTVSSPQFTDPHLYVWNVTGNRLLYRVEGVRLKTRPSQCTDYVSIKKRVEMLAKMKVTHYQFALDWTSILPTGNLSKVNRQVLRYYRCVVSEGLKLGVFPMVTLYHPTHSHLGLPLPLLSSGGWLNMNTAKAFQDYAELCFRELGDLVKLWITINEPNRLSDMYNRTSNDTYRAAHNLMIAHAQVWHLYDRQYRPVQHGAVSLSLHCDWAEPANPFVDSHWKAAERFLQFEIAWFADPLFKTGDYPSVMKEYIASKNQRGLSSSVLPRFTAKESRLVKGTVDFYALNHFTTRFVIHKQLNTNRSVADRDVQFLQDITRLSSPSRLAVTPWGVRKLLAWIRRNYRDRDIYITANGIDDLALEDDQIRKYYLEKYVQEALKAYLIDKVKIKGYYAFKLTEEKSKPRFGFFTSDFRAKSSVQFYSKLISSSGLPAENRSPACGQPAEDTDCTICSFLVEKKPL
Protocol: Increasing concentrations of FGF21 were mixed with a fixed concentration of βKlotho ectodomain, and the mixtures were passed over a FGF21 chip. […] Increasing concentrations of FGF21²⁹⁻¹⁹⁰/FGF19¹⁹⁷⁻²¹⁶ chimera were mixed with a fixed concentration of βKlotho ectodomain, and the mixtures were passed over a FGF21 chip. […] The figure was created from the data shown in FIGS. 7A-B, which are representative of two independent experiments.
as §1, with “s. In experiments where βKlotho binding to FGFR was analyzed, the chip surface was then regenerated by injecting 50 μl of 2.0 M NaCl in 10 mM sodium/potassium phosphate, pH 6.5. In experiments where α/βKlotho binding to FGF19/21/23 or binding of the FGFR1c-βKlotho complex to FGF21 was studied, 2.0 M NaCl in 10 mM sodium acetate, pH 4.5 was used for chip regeneration. […]” for “s.”

[3] = target: T1, 1:1 binary complex of FGFR1c …; assay: SPR competition; FGF21 immobilized, complex mixed with the mutant at a molar ratio of 1:2 or 1:6 (FIG. 14B)
Protocol: Increasing concentrations of FGF21 were mixed with a fixed concentration of FGFR1c-βKlotho complex, and the mixtures were passed over a FGF21 chip. […] In the experiments shown in FIGS. 14B-14C, FGFR1c-βKlotho complex was mixed with either mutant FGF21 or wild-type FGF21 at a molar ratio of 1:2 or 1:6, and the mixtures were injected over a FGF21 chip. The data shown in FIGS. 14A-14C are representative of two to three independent experiments.
as §1, with “s. In experiments where βKlotho binding to FGFR was analyzed, the chip surface was then regenerated by injecting 50 μl of 2.0 M NaCl in 10 mM sodium/potassium phosphate, pH 6.5. In experiments where α/βKlotho binding to FGF19/21/23 or binding of the FGFR1c-βKlotho complex to FGF21 was studied, 2.0 M NaCl in 10 mM sodium acetate, pH 4.5 was used for chip regeneration.” for “s.”

[4] = target: T2, ectodomain of murine βKlotho (F53 to …); assay: size-exclusion chromatography of the binary complex (FIG. 1A)
Protocol: Size-exclusion chromatography experiments were performed on a HiLoad™ 16/60 Superdex™ 200 prep grade column (GE Healthcare) mounted on an ÄKTApurifier (GE Healthcare). […] Sample injection volume was 0.9 to 2.0 ml, and the flow rate was 1.0 ml min⁻¹. Protein retention times were determined by absorbance at 280 nm. The column was calibrated with ferritin (440 kDa), immunoglobulin G (150 kDa), albumin (69.3 kDa), ovalbumin (44.3 kDa), carbonic anhydrase (28.8 kDa), and ribonuclease A (13.7 kDa). The void volume was determined using blue dextran 2,000, and the column volume was measured with acetone. To examine ternary complex formation between FGF21, FGFR1c, and βKlotho, 2.72 μmol of the 1:1 binary complex of FGFR1c ligand-binding domain and βKlotho ectodomain were mixed with 9.25 μmol of FGF21, and the mixture was applied to the size-exclusion column. The retention time of the FGFR1c-βKlotho complex alone served as a reference point. To examine ternary complex formation between FGF19, FGFR4, and βKlotho, 2.46 μmol of the 1:1 binary complex of FGFR4 ligand-binding domain and βKlotho ectodomain were mixed with 8.51 μmol of FGF19, and the mixture was applied to the size-exclusion column. The retention time of the FGFR4-βKlotho complex alone served as a reference point. […]

[5] = target: T2, ectodomain of murine βKlotho (F53 to …); assay: SPR competition; FGF19 or FGF21 immobilized, fixed βKlotho ectodomain mixed with increasing peptide (FIGS. 5B, 5F)
Text: Residues that are identical between FGF19 and FGF21 are shaded gray. Note that 40% of these residues map to the most C-terminal sequence. […] FGF19 was immobilized on a biosensor chip, and mixtures of a fixed concentration of βKlotho ectodomain with increasing concentrations of FGF19^C-tail were passed over the chip. […] Mixtures of a fixed concentration of βKlotho ectodomain with increasing concentrations of FGF21^C-tail were passed over a biosensor chip onto which FGF19 had been immobilized. […] FGF21 was immobilized on a biosensor chip, and mixtures of a fixed concentration of βKlotho ectodomain with increasing concentrations of FGF21^C-tail were passed over the chip. […] Mixtures of a fixed concentration of βKlotho ectodomain with increasing concentrations of FGF19^C-tail were passed over a biosensor chip onto which FGF21 had been immobilized. […] The data shown in FIGS. 5B-G are representative of two to three independent experiments.

[6] = target: FGFR1c endogenously expressed by HEK293 cells transiently transfected with murine βKlotho (UniProt P11362 22-822); assay: cell-based or functional assay
FGFR1c endogenously expressed by HEK293 cells transiently transfected with murine βKlotho, sequence (P11362 22-822): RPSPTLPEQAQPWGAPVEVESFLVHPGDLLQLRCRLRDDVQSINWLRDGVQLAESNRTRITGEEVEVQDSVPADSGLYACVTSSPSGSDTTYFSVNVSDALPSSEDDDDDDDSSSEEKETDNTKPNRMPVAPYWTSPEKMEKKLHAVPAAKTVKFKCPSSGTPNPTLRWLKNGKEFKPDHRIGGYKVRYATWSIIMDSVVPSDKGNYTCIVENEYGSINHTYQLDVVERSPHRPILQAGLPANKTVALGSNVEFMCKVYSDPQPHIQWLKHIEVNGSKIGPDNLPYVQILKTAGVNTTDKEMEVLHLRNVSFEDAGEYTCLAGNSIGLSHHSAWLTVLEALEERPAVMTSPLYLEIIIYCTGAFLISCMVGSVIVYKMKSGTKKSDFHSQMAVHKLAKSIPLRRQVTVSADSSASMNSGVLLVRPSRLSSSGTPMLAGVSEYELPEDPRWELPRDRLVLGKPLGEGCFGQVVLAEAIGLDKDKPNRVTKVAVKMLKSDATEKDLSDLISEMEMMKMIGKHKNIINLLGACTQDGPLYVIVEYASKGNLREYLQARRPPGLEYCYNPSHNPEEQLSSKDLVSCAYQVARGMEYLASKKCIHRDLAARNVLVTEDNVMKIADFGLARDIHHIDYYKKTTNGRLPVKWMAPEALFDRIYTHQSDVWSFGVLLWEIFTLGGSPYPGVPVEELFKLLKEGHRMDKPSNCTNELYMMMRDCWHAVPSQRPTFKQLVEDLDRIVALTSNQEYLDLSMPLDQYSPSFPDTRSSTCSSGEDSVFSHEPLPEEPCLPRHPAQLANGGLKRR

B1: FGF21^29-190/FGF19^197-216 chimera (H29 to S190 of human FGF21 and M197 to K216 of human FGF19; SEQ ID NO: 206) (ligand)
chain: HPIPDSSPLLQFGGQVRQRYLYTDDAQQTEAHLEIREDGTVGGAADQSPESLLQLKALKPGVIQILGVKTSRFLCQRPDGALYGSLHFDPEACSFRELLLEDGYNVYQSEAHGLPLHLPGNKSPHRDPAPRGPARFLPLPGLPPALPEPPGILAPQPPDVGSMDPFGLVTGLEAVRSPSFEK
notes: Chimera of human FGF21 and human FGF19, purified from E. coli inclusion bodies; also called FGF21^C-tail variant 19-45
- binding result [1]: binds
- binding result [2]: binds

B2: Y207F single mutant of human FGF21 (SEQ ID NO: 232) (ligand)
chain: HPIPDSSPLLQFGGQVRQRYLYTDDAQQTEAHLEIREDGTVGGAADQSPESLLQLKALKPGVIQILGVKTSRFLCQRPDGALYGSLHFDPEACSFRELLLEDGYNVYQSEAHGLPLHLPGNKSPHRDPAPRGPARFLPLPGLPPALPEPPGILAPQPPDVGSSDPLSMVGPSQGRSPSFAS
notes: It was purified by the same protocol as the wild-type protein, which was H29 to S209; also called Y207F mutant of FGF21; single mutant FGF21
- binding result [3]: binds

B3: ligand-binding domain of human FGFR1c (D142 to R365 of SEQ ID NO: 221) (receptor)
chain: DNTKPNRMPVAPYWTSPEKMEKKLHAVPAAKTVKFKCPSSGTPNPTLRWLKNGKEFKPDHRIGGYKVRYATWSIIMDSVVPSDKGNYTCIVENEYGSINHTYQLDVVERSPHRPILQAGLPANKTVALGSNVEFMCKVYSDPQPHIQWLKHIEVNGSKIGPDNLPYVQILKTAGVNTTDKEMEVLHLRNVSFEDAGEYTCLAGNSIGLSHHSAWLTVLEALEER
- binding result [4]: binds

B4: C-terminal tail peptide of human FGF19 (M171 to K216 of SEQ ID NO: 1), fused to a 50 residue-long N-terminal tag including a hexahistidine tag (peptide)
peptide: MVPEEPEDLRGHLESDMFSSPLETDSMDPFGLVTGLEAVRSPSFEK
notes: Expressed in E. coli and purified from the soluble lysate fraction; also called FGF19^C-tail; FGF19 C-terminal tail peptide; not shown: 50 residue-long N-terminal tag including a hexahistidine tag
- binding result [5]: binds

B5: FGF21^29-167/FGF19^169-216 chimera (H29 to L167 of human FGF21 and L169 to K216 of human FGF19; SEQ ID NO: 207) (ligand)
chain: HPIPDSSPLLQFGGQVRQRYLYTDDAQQTEAHLEIREDGTVGGAADQSPESLLQLKALKPGVIQILGVKTSRFLCQRPDGALYGSLHFDPEACSFRELLLEDGYNVYQSEAHGLPLHLPGNKSPHRDPAPRGPARFLPLLPMVPEEPEDLRGHLESDMFSSPLETDSMDPFGLVTGLEAVRSPSFEK
- Induction of Egr1 protein expression (immunoblot, HEK293 cells co-expressing FGFR1c and βKlotho) [6]: 10 fold lower concentration than native FGF21
